Data: patent US20230263900A1, “DENDRIMER-DRUG CONJUGATE” (priority 2020, published 2023)

Assay: Pharmacokinetic studies of RHa-5 and RHa-15, single IV or SC administration, compared with RDV
Format: in vivo, animals (mammals)
Conditions: for C0, plasma GS-441524 / C0, plasma Remdesivir / F AUC(0-inf), plasma GS-441524 / F AUC(0-inf), plasma Remdesivir / F AUC(0-last), plasma GS-441524 / F AUC(0-last), plasma Remdesivir / Clast, plasma GS-441524 / Clast, plasma Remdesivir / t1/2last, plasma GS-441524 / t1/2last, plasma Remdesivir / tlast, plasma GS-441524 / tlast, plasma Remdesivir: 6.17 mg/kg Remdesivir equivalent; for F AUC(0-inf), plasma GS-441524 / F AUC(0-inf), plasma Remdesivir / F AUC(0-last), plasma GS-441524 / F AUC(0-last), plasma Remdesivir: relative to RDV IV
Method: Studies were undertaken to investigate the pharmacokinetic (PK) profile of two Remdesivir dendrimer conjugates following single intravenous (IV) or subcutaneous (SC) administration, and to compare them with that of Remdesivir (RDV).
The study consisted of two phases (PK Phase 1 and PK Phase 2) in a total of 6 animals (age 36-48 months) each part separated by a washout period: • PK Phase 1: Four animals (mammals) were studied. One male and one female were administered RHa-5 (BHALys [Lys]2[Lys]2[Lys]8[Lys]16[Lys]32[(α-NH-6N-TDA-Remdesivir)32(ε-NH-COPEG2000)32] 20% Remdesivir loading w/w) (test item) intravenously; and one male and one female were administered RHa-5 subcutaneously. Blood samples were taken over a period of 7 days. A minimum washout period of 14 days took place between the last blood sampling point of the PK Phase 1 and the start of PK Phase 2. • PK Phase 2: Six animals (mammals) were studied. One male and one female were administered RHa-15 (BHALys[Lys]2[Lys]4[Lys]8[Lys]16[Lys]32[(α-NH-3′ O-TDA-Remdesivir)32(ε-NH-COPEG2000)32] 18.63% Remdesivir loading w/w) (test item) intravenously; one male and one female were administered RHa-15 subcutaneously; and one male and one female were administered RDV (reference item). Blood samples were taken over a period of 7 days.
Formulation procedure: Test items RHa-5 and RHa-15 were reconstituted in Required volume of Water for injection (WFI), until a complete solution was obtained. The required volume of WFI was slowly added to RDV formulation (a lyophilate of 3.2% w/w RDV, 96.8% and sodium sulfobutylether-β-cyclodextrin adjusted to pH 3.5 with HCl) and shaken vigorously for 30 seconds. The solution was left for 20 minutes to ensure complete dissolution.
Administration: The clinical Remdesivir loading dose in humans is 200 mg. […] Allometric conversion of the dose from humans to small mammals results in an equivalent test dose of 6.17 mg/kg Remdesivir. Test item was administered as follows:
PK Phase 1: Two animal groups (A and B) of one male and one female each were administered test item RHa-5 at a Remdesivir equivalent dose of 6.17 mg/kg. Group A were administered the test item as a slow (30 seconds) intravenous bolus; and Group B were administered the test item over 30 seconds using the subcutaneous (SC) route into the back of the animal.
PK Phase 2: Three animal groups (C, D and E) of one male and one female each were included in this study phase. Groups C and D were administered test item RHa-15 at a Remdesivir equivalent dose of 6.17 mg/kg using the IV and SC routes, respectively. Group E were administered 6.17 mg/kg of RDV intravenously. IV administrations were done as a slow (30 seconds) bolus. SC administrations were done over 30 seconds.
Sampling schedule: Blood samples for PK analysis were collected as follows: • Day 1: pre-dose and at 15 min, 30 min, 1 h, 2 h, 4 h, 6 h, and 12 h after administration. • Days 2 to 8: 24, 48, 72, and 168 h after administration.
A blood volume of 2 mL was collected at each time point from the jugular vein with a 20-21G needle into a lithium heparin tube, and transferred into a tube containing 200 μL 0.15 M citric acid. Immediately following blood collection, the blood samples were mixed gently and kept on crushed ice until centrifugation at 1500 G for 10 min at 4° C. within 30 minutes of collection. Each plasma sample was stored frozen (˜80±10° C.).
The quantification range was 0.6 to 14400 ng/mL for Remdesivir and 0.6 to 14400 ng/mL for G441524.
Non-compartmental pharmacokinetic analysis was adopted to obtain the pharmacokinetic parameters from the blood concentration profiles.
The maximum concentration, Cmax, and time of maximum concentration, Tmax, were determined as the maximum measured concentration and its associated time. The area under the plasma concentration curve from 0 hours to the time of the last measurable concentration, AUC0-last, was calculated using linear trapezoidal estimation. […]

BHALys[Lys]2[Lys]4[Lys]8[Lys]16[Lys]32[(α-NH-6N-TDA-Remdesivir)32(ε-NH-COPEG2000)32] [RHa-5]
Release profile for plasma Remdesivir (IV and SC): excellent sustained release profile
C0, plasma GS-441524 (IV, female (4F)): 2 ng/mL
C0, plasma Remdesivir (IV, female (4F)): 4648 ng/mL
F AUC(0-inf), plasma GS-441524 (IV, female (4F)): 0.8 x-fold
F AUC(0-inf), plasma Remdesivir (IV, female (4F)): 605.7 x-fold
F AUC(0-last), plasma GS-441524 (IV, female (4F)): 0.8 x-fold
F AUC(0-last), plasma Remdesivir (IV, female (4F)): 667.2 x-fold
Clast, plasma GS-441524 (IV, female (4F; RDV 6F)): 3.7 ng/mL
Clast, plasma Remdesivir (IV, female (4F; RDV 6F)): 22.0 ng/mL
t1/2last, plasma GS-441524 (IV, female (4F; RDV 6F)): 39.6 h
t1/2last, plasma Remdesivir (IV, female (4F; RDV 6F)): 19.2 h
tlast, plasma GS-441524 (IV, female (4F; RDV 6F)): 168 h
tlast, plasma Remdesivir (IV, female (4F; RDV 6F)): 168 h
C0, plasma GS-441524 (IV, male (1M)): 2 ng/mL
C0, plasma Remdesivir (IV, male (1M)): 5701 ng/mL
F AUC(0-inf), plasma GS-441524 (IV, male (1M)): 0.9 x-fold
F AUC(0-inf), plasma Remdesivir (IV, male (1M)): 437.4 x-fold
F AUC(0-last), plasma GS-441524 (IV, male (1M)): 0.8 x-fold
F AUC(0-last), plasma Remdesivir (IV, male (1M)): 438.1 x-fold
Clast, plasma GS-441524 (IV, male (1M; RDV 3M)): 3.1 ng/mL
Clast, plasma Remdesivir (IV, male (1M; RDV 3M)): 98.7 ng/mL
t1/2last, plasma GS-441524 (IV, male (1M; RDV 3M)): 36.6 h
t1/2last, plasma Remdesivir (IV, male (1M; RDV 3M)): 29.5 h
tlast, plasma GS-441524 (IV, male (1M; RDV 3M)): 168 h
tlast, plasma Remdesivir (IV, male (1M; RDV 3M)): 168 h
C0, plasma GS-441524 (IV, mean of male and female): 2 ng/mL
C0, plasma Remdesivir (IV, mean of male and female): 5175 ng/mL
Clast, plasma GS-441524 (IV, mean of male and female): 3 ng/mL
Clast, plasma Remdesivir (IV, mean of male and female): 60 ng/mL
t1/2last, plasma GS-441524 (IV, mean of male and female): 38.1 h
t1/2last, plasma Remdesivir (IV, mean of male and female): 24.3 h
tlast, plasma GS-441524 (IV, mean of male and female): 168 h
tlast, plasma Remdesivir (IV, mean of male and female): 168 h
F AUC(0-inf), plasma GS-441524 (IV, mean): 0.8 x-fold
F AUC(0-inf), plasma Remdesivir (IV, mean): 521.6 x-fold
F AUC(0-last), plasma GS-441524 (IV, mean): 1 x-fold
F AUC(0-last), plasma Remdesivir (IV, mean): 553 x-fold
Clast, plasma GS-441524 (SC, female (5F)): 6.5 ng/mL
Clast, plasma Remdesivir (SC, female (5F)): 21.1 ng/mL
tlast, plasma GS-441524 (SC, female (5F)): 168 h
tlast, plasma Remdesivir (SC, female (5F)): 168 h
F AUC(0-last), plasma GS-441524 (SC, female (5F)): 0.7 x-fold
F AUC(0-last), plasma Remdesivir (SC, female (5F)): 113.8 x-fold
Clast, plasma GS-441524 (SC, male (2M)): 8.8 ng/mL
Clast, plasma Remdesivir (SC, male (2M)): 34.4 ng/mL
t1/2last, plasma GS-441524 (SC, male (2M)): 61.9 h
t1/2last, plasma Remdesivir (SC, male (2M)): 28.9 h
tlast, plasma GS-441524 (SC, male (2M)): 168 h
tlast, plasma Remdesivir (SC, male (2M)): 168 h
F AUC(0-inf), plasma GS-441524 (SC, male (2M)): 1.1 x-fold
F AUC(0-inf), plasma Remdesivir (SC, male (2M)): 146.8 x-fold
F AUC(0-last), plasma GS-441524 (SC, male (2M)): 1.0 x-fold
F AUC(0-last), plasma Remdesivir (SC, male (2M)): 146.9 x-fold
Clast, plasma GS-441524 (SC, mean): 7.7 ng/mL
Clast, plasma Remdesivir (SC, mean): 28 ng/mL
t1/2last, plasma GS-441524 (SC, mean): 61.9 h
t1/2last, plasma Remdesivir (SC, mean): 28.9 h
tlast, plasma GS-441524 (SC, mean): 168 h
tlast, plasma Remdesivir (SC, mean): 168 h
F AUC(0-inf), plasma GS-441524 (SC, mean): 1.1 x-fold
F AUC(0-inf), plasma Remdesivir (SC, mean): 147 x-fold
F AUC(0-last), plasma GS-441524 (SC, mean): 1 x-fold
F AUC(0-last), plasma Remdesivir (SC, mean): 130 x-fold
Plasma Remdesivir t1/2 and AUC compared to RDV delivered IV (delivered IV or SC): substantially extended plasma Remdesivir t1/2 and increased AUC
